{"source": "paper PMC3347502", "molecular_target": "long-chain neurotoxin NTII/I", "experiment": "NMR titration"}
{"substance": "α7ED/C116S/DTES (extracellular domain of human α7 nicotinic acetylcholine receptor with Cys116Ser an (domain or fragment)", "values": [{"measurement": "stoichiometry N", "value": 2}]}
